Reference: patent EP1728802A2

Tests used:
[1] = target: ErbB3 expressed on 4E9H3 cells (K562 cells stably transfected with erbB3 cDNA) (UniProt P21860); assay: Scatchard analysis of competitive 125I-HRG binding to 4E9H3 cells, no antibody
[2] = target: ErbB3 expressed on 4E9H3 cells (K562 cells stably transfected with erbB3 cDNA) (UniProt P21860); assay: Scatchard analysis of competitive 125I-HRG binding to 4E9H3 cells, in the presence of 100 nM 3-8D6 Fab
[3] = target: ErbB3 expressed on 4E9H3 cells (K562 cells stably transfected with erbB3 cDNA) (UniProt P21860); assay: Scatchard analysis of competitive 125I-HRG binding to 4E9H3 cells, in the presence of 100 nM 3-8D6 IgG

UniProt P21860, sequence (P21860 20-1342 limits assumed): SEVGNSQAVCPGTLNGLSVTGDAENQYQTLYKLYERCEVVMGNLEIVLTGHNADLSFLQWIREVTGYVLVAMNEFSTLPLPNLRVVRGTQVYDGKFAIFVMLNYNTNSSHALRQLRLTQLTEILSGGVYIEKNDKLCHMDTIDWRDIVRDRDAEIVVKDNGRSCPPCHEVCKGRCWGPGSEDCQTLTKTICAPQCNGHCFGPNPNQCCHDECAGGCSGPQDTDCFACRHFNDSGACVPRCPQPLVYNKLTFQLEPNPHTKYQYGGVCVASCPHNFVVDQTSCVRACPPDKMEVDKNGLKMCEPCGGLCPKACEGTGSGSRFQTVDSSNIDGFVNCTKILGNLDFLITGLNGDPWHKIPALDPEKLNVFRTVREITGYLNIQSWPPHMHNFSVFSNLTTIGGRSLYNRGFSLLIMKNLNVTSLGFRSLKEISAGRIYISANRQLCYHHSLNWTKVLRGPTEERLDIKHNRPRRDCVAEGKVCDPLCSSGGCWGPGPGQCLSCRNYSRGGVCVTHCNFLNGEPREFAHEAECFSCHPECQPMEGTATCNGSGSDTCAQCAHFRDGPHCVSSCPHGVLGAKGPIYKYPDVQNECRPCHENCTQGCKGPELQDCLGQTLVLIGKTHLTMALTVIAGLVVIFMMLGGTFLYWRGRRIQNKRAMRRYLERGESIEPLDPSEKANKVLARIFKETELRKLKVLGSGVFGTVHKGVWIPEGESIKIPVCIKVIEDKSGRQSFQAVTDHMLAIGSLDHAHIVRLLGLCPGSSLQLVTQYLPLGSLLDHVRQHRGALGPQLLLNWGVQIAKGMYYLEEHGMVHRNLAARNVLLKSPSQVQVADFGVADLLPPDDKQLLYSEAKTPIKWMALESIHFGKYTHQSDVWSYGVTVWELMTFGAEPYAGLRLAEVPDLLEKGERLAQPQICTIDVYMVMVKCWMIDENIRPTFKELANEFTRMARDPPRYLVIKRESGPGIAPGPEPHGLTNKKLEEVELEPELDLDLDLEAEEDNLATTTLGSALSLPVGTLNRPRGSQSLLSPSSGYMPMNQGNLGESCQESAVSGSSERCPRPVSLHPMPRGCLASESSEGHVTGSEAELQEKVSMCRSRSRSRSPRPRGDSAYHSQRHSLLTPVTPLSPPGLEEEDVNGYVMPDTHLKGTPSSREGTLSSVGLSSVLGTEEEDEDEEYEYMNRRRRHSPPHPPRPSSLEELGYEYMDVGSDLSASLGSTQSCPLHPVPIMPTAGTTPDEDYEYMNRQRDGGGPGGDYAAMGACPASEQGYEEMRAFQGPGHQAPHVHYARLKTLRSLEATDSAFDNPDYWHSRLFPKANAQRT

Kd [1]: 1.2 nM | Sites/Cell [1]: 360000 sites/cell | Kd [2]: 0.28 nM | Sites/Cell [2]: 290000 sites/cell | Kd [3]: 0.21 nM | Sites/Cell [3]: 240000 sites/cell
Substance: HRGβ1(177-244), EGF-like domain of the β1 isoform of heregulin (from UniProt Q02297 177-244) (ligand)
